PMC8699147
Several values for one entry are separate records, joined by “and”; a condition that tells them apart may be missing. Identical values can stand only once.

Target: T1, alpha-fetoprotein, P02771
T1 chain: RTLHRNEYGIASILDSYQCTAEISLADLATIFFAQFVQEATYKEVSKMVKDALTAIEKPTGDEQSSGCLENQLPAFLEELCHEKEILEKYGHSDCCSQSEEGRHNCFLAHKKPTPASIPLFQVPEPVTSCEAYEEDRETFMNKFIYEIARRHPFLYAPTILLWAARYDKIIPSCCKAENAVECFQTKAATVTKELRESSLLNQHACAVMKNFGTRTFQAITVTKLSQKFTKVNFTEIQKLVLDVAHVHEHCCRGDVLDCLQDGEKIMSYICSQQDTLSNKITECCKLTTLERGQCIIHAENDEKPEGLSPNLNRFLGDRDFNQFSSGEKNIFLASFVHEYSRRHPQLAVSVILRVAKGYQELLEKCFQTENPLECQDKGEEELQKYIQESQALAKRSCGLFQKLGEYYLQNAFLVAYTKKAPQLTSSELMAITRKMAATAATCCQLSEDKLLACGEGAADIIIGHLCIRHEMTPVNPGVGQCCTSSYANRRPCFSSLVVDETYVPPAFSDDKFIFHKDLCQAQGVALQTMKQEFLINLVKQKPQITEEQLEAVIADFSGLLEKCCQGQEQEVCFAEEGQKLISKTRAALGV
Assay: native gel or EMSA; native 10% PAGE without SDS of calibrator S1 of VIDAS AFP, 150 V, running buffer 0.025 M TRIS-Base pH 8.3, 0.192 M glycine, Coomassie Blue staining
Details: remark: other sources report otherwise

stoichiometry N: 2 and 3 and 4
B1: alpha-fetoprotein, P02771 19-609 (natural protein)
chain: T1 chain
